US20060259987A1 (UNIVERSITY OF UTAH RESEARCH FOUNDATION, published 2006)

Assays:
[1] = molecular target: thrombin (human, UniProt P00734 328-622); assay: cell-based or functional assay
[2] = molecular target: factor Xa (human, UniProt P00742 41-179; P00742 235-488, limits assumed); assay: cell-based or functional assay
Chain of factor Xa (P00742 41-179 limits assumed, chain 1 of 2): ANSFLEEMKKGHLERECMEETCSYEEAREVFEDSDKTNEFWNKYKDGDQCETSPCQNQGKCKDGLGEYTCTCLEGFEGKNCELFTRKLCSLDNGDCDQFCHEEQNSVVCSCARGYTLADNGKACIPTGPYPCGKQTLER
Chain of factor Xa (P00742 235-488 limits assumed, chain 2 of 2): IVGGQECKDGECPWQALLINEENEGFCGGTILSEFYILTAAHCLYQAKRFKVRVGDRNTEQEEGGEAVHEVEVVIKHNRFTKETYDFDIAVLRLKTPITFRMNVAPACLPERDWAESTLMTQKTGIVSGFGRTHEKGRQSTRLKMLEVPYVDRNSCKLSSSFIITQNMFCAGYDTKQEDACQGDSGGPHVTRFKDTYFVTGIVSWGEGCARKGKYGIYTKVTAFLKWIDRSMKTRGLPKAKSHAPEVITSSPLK

| IC50 IIa/UFH; HCA #4 [1] [nM] | IC50 fXa/UFH; HCA #4 [2] [nM] | rsd. IIa catG; CA #12; stg1 conc 200 [1] [%] | rsd. IIa hne; CA #12; stg1 conc 200 [1] [%] | rsd. IIa no add; CA #12; stg1 conc 200 [1] [%] | rsd. Xa catG; CA #12; stg1 conc 200 [2] [%] | rsd. Xa hne; CA #12; stg1 conc 200 [2] [%] | rsd. Xa no add; CA #12; stg1 conc 200 [2] [%] | IC50 IIa/UFH; HCA #3 [1] [nM] | IC50 fXa/UFH; HCA #3 [2] [nM] | Binder |
| --- | --- | --- | --- | --- | --- | --- | --- | --- | --- | --- |
| 333 | 18 | – | – | – | – | – | – | – | – | LEAI.477 (other) SPVDICTAKPRDIPMNPMCIYRSPEKKATEDEGSEQKIPEATNRRVWELSKANSRFATTFYQHLADSKNDNDNIFLSPLSISTAFAMTKLGACNDTLQQLMEVFKFDTISEKTSDQIHFFFAKLNCRLYRKANKASKLVSANRLFGDKSLTFNETYQDISELVYGAKLQPLDFKENAEQSRAAINKWVSNKTEGRITDVIPSEAINELTVLVLVNTIYFKGLWKSKFSPENTRKELFYKADGESCSASMMYQEGKFRYRRVAEGTQVLELPFKGDDITMVLILPKPEKSLAKVEKELTPEVLQEWLDELEEMMLVVHMPRFRIEDGFSLKEQLQDMGLVDLFSPEKSKLPGIVAEGRDDLYVSDAFHKAFLEVNEEGSEAAASTALEAPGRSLNPNRVTFKANRPFLVFIREVPLNTIIFMGRVANPCVK |
| 100 | 12 | 1 | 79 | 1 | 1 | 1 | 1 | – | – | LEAI.478 (other) SPVDICTAKPRDIPMNPMCIYRSPEKKATEDEGSEQKIPEATNRRVWELSKANSRFATTFYQHLADSKNDNDNIFLSPLSISTAFAMTKLGACNDTLQQLMEVFKFDTISEKTSDQIHFFFAKLNCRLYRKANKASKLVSANRLFGDKSLTFNETYQDISELVYGAKLQPLDFKENAEQSRAAINKWVSNKTEGRITDVIPSEAINELTVLVLVNTIYFKGLWKSKFSPENTRKELFYKADGESCSASMMYQEGKFRYRRVAEGTQVLELPFKGDDITMVLILPKPEKSLAKVEKELTPEVLQEWLDELEEMMLVVHMPRFRIEDGFSLKEQLQDMGLVDLFSPEKSKLPGIVAEGRDDLYVSDAFHKAFLEVNEEGSEAAASTALEASGRSLNPNRVTFKANRPFLVFIREVPLNTIIFMGRVANPCVK |
| – | – | – | – | – | – | – | – | 220 | 24 | LEAI.481 (other) SPVDICTAKPRDIPMNPMCIYRSPEKKATEDEGSEQKIPEATNRRVWELSKANSRFATTFYQHLADSKNDNDNIFLSPLSISTAFAMTKLGACNDTLQQLMEVFKFDTISEKTSDQIHFFFAKLNCRLYRKANKASKLVSANRLFGDKSLTFNETYQDISELVYGAKLQPLDFKENAEQSRAAINKWVSNKTEGRITDVIPSEAINELTVLVLVNTIYFKGLWKSKFSPENTRKELFYKADGESCSASMMYQEGKFRYRRVAEGTQVLELPFKGDDITMVLILPKPEKSLAKVEKELTPEVLQEWLDELEEMMLVVHMPRFRIEDGFSLKEQLQDMGLVDLFSPEKSKLPGIVAEGRDDLYVSDAFHKAFLEVNEEGSEAAASTALEAGGRSLNPNRVTFKANRPFLVFIREVPLNTIIFMGRVANPCVK |
| – | – | – | – | – | – | – | – | 280 | 100 | LEAI.479 (other) SPVDICTAKPRDIPMNPMCIYRSPEKKATEDEGSEQKIPEATNRRVWELSKANSRFATTFYQHLADSKNDNDNIFLSPLSISTAFAMTKLGACNDTLQQLMEVFKFDTISEKTSDQIHFFFAKLNCRLYRKANKASKLVSANRLFGDKSLTFNETYQDISELVYGAKLQPLDFKENAEQSRAAINKWVSNKTEGRITDVIPSEAINELTVLVLVNTIYFKGLWKSKFSPENTRKELFYKADGESCSASMMYQEGKFRYRRVAEGTQVLELPFKGDDITMVLILPKPEKSLAKVEKELTPEVLQEWLDELEEMMLVVHMPRFRIEDGFSLKEQLQDMGLVDLFSPEKSKLPGIVAEGRDDLYVSDAFHKAFLEVNEEGSEAAASTALEAWGRSLNPNRVTFKANRPFLVFIREVPLNTIIFMGRVANPCVK |
